assay: soluble on expression in E. coli; label from the status in PepcDB or PDB records

| Sequence | soluble on expression in E. coli |
| --- | --- |
| MEKVVCIGCGVTIQTEDKTGLGYAPPASLTKENVICQRCFRLKNYNEIQDVSLTDDDFLNILHGIGETDSLVVKIVDIFDFNGSWINGLQRLVGGNPILLVGNKADILPKSLKRERLIQWMKREAKELGLKPVDVFLVSAGRGQGIREVIDAIEHYRNGKDVYVVGCTNVGKSTFINRIIKEVSGEEDIITTSQFPGTTLDAIEIPLDDGSSLYDTPGIINNHQMAHYVNKKDLKILSPKKELKPRTFQLNDQQTLYFGGLARFDYVSGERSPFICYMPNELMIHRTKLENADALYEKHAGELLTPPGKDEMDEFPELVAHTFTIKDKKTDIVFSGLGWVTVHDADKKVTAYAPKGVHVFVRRSLI | not soluble |
| MKKKIIKKKSAAAPASKIPDDFEMPMARVADEDDVAEDYKVVDMSEIAAPIIEFEMPNLVEKSPEEFKNSEVTGEASREVSVKTPKKVTKRVRKSSKTDKTDQIPLTAEKLNNELVALRATCLTAKNQLMSRIVRQKKQLESKKSQKVDGKSKEERDRKIARLVEEILGLKTFDKDSVAKFAALNTKSLAELKINGKTEVAERLMYKLVCQSIIVEKIQSIREKYTEWNKTAAFFMQRLGQQYANKPEKKSKKSTEKKELNIENLEDLNNEDEDSENEKEEEIEENEEDYDQSDIEMLDSDEEEAGEEAAKNRRNLLLGLIGVQEDKNRPSLAPKKRKLVEEEDEEVETVKNQKKMKQIFEKELKSKEVKNPKKSNKSTKKPTKSAPIVKKVEEKKVEENEVSDDESDQKTLVMKVDLSKGGKIAKAQKFSTTAPKSAKIVAPVSEDENDDDESSSFFLPKSGVVAPRKIIPKKPSENVEKVDKRFQKGTQKKSEAVVEKKKGSSKSAVSGEMHPSWIASQLKKKELASAKPCGKKITFGDDEEE | not soluble |
| MSLSARSSASSWSEEPVQSNMDISTGHMILSYMEDHLKNKNRLEKEWEALCAYQAEPNSSFVAQREENVPKNRSLAVLTYDHSRVLLKAENSHSHSDYINASPIMDHDPRNPAYIATQGPLPATVADFWQMVWESGCVVIVMLTPLAENGVRQCYHYWPDEGSNLYHIYEVNLVSEHIWCEDFLVRSFYLKNLQTNETRTVTQFHFLSWYDRGVPSSSRSLLDFRRKVNKCYRGRSCPIIVHCSDGAGRSGTYVLIDMVLNKMAKGAKEIDIAATLEHLRDQRPGMVQTKEQFEFALTAVAEEVNAILKALPQEGHHHHHH | soluble |
| MGSDKIHHHHHHMIKNQWYVVLSSRELKKGQLIGVTRFGEKLAFWRDSNGKVHCISDICCHRGASISHGKVLSNGERVMCPFHGFEYDSQGRVRTIPANGRNTPVPENFRVKSYPTYELADFIWIWYGDREPEKPPKYFDDITDELVYTEFKEVWNVHYSRAIENQLDPIHLPFVHYNTIGRGNRTVVDGPIVEWKDDEMFYFYVFNRIDDGTPARKPEEMDPKRKSKVYLEFKFPNIWQNHISEKIRVTAAFTPIDDDHTMIYLRFYVGLTGIKFLDKLIAVLGKPFNKIVLHQDKRVVETQIPKRSELRMGENLIPGDAPILEYRKKREALKSMQQNNRVK | not soluble |
| MDYKMNNLQLEALLNETLSPQLIKDYCPNGLQVEGKVEVKRIVTGVTASMALIEAAIELKADALLVHHGYFWKNEPEAIRGMKGRRIRTLIQNDLNLYAYHLPLDIHPQLGNNAQLAQRLGICVDGGLEGHPQSVAMFGHFLQPLTGEELAHRIGQVLNRTPLHIAPDQADKLIETVGWCTGGGQDYIELAASRGLDAFISGEISERTTYSAREQSIHYFSAGHHATERYGIKALGEWLAENHGFDVTFIDIDNPVLEHHHHHH | soluble |
| GPGSMIMKASGAAVLHAVREKMQEATVAALIVTSSDAHNSEYVATHLQSRAFISHFQGSAGTALITMEKALLWTDGRYWLAAEEEKYPEFDLMKQGQPEVPSLEEWIAANLGSKAVVGMSPYVATVAEWERLSKKINLRPVANIVQDMMPPEKSVRKMYVRPAEFCGATCQERRAAILAELEKKDCDMIILSALDEIAWFTNLRGGDVDYNPVFYAYAVIDKHYENVRLYVNLDKVTDAVRQACEDHIDFYPYEQFEADLKQLPRGRKALVDERQTSEAVFRILKDVGTVTVRVVCGPAQKLKAIKNEVELKGFRDCHVRDGAALTRYLAWLHDQVANKGVTDLNEYDAATKLEEFRAQGEHFVQLSFGSISSIGPNGAMCHYSPAETGSAAIRRDQLYLIDSGAHYWDGTTDVTRTICFTAPSDEQREAYTLVLKGHIALNSIIFPKGTSGVRLDTLARMALWGVGLDYAHGTGHGVGSFLNVHEGPHGISTRPVATGANMELHSIVSNEPGYYKDGHYGIRIENLEEVVECRTKYSATGFYTMSHLTMAPLCRDLIDVSLLTETERAWVDRYHAKVVASIMPHLQQAGDQNAVEYLKYHTRPLFAVNEAYTLLSPDGKGAK | not soluble |
| MDLTHFQDGRPRMVDVTEKPETFRTATAEAFVELTEEALSALEKGGVGKGDPLVVAQLAGILAAKKTADLIPLCHPLPLTGVEVRVELLKAEKRVRIEATVKTKAETGVEMEAMTACAVAALTVYDMLKAASKGLVISQVRLLHKAGGKSGEWRREQ | soluble |
| SHMQPFVYMAAPARIVFSAGSSADVAEEIRRLGLSRALVLSTPQQKGDAEALASRLGRLAAGVFSEAAMHTPVEVTKTAVEAYRAAGADCVVSLGGGSTTGLGKAIALRTDAAQIVIPTTYAGSEVTPILGQTENGVKTTMRGPEILPEVVIYDAELTLGLPVAISMTSGLNAMAHAAEALYARDRNPIASMMAVEGLRAMIEALPVVRQAPHDIGARETALYGAWLCGTVLGAVGMSLHHKLCHTLGGSLDLPHAETHAVLLPHTIAYVEEAAPNLLAPLAALVGGRAGAGLFDFAARLGAPSSLAALGVGADDLDPMAELATANPYWCPRPIEKTAIRDLLQRAFEGARPA | soluble |
| MVKGPGLYTEIGKKARDLLYKDHNSDQKFSITTFSPAGVAITSTGTKKGDLLLGDVAFQSRRKNITTDLKVCTDSTFLITATVDEAAPGLRSIFSFKVPDQNSGKVELQYLHEYAGISTSMGLTQNPTVNFSGVIGSNVLAVGTDVSFDTKSGNFTKINAGLSFTKEDLIASLTVNDKGDLLNASYYHIVNPLFNTAVGAEVSHKLSSKDSTITVGTQHSLDPLTSVKARVNSAGIASALIQHEWKPKSFFTISGEVDTKSIDKSAKVGLALALKP | soluble |
| MNANCSSTAAVICEKKLHRPYSKHCPKHWVYNKETQACYRTISKTNMTILEADNKCFDYGFEHRQDAMLTSIESESENQFVMNLAKEKDANFEFIYLGGYGRSRNGNKWHWMDGSEFNYMNWDRGMPFGRRALAVLVMNKRGKWINHYADKILSQYNAVAVCKFKS | not soluble |
| MRPVVHVVGGGPGDPELLTVKGARLLGEARFVLYTGSLFPEGALRELAPKAALLDSKGMTLEEIVLALAEEARKGGGVVRLHSGDPGLYGTLLEEKEALEALGVGVEVVPGVTAAFALAARAGLSLTAPGVAQAVAFTRLGVRTPVPEGQDPKSLARKGLTLAVYLSGMHPRRLSRELLEAGLPGDTPVLYGHKVAQPGEEVGLTDLKGLAHLPARDTTVYLVGEALRAKGVRSLLYDPSFKHRYRR | soluble |
| MSLTKTEGKTASAAVKDILLSNPDGLREVIRTVMQEVLEAEMDEALGAAKGERTPERLGYRSGHYGRTLITRVGKLELRVPQDRSGHFSTELFERYQRSERALVATLAEMYVQGVSTRKVKAITEELCGHAFSASSISAINKRLDESLKAFAERSLQEPFAYLILDARYEKVREAGVVMSQAVLIAVGIDWDGRRQILSVEMAGRESRCAWKNFLVRLKGRGLKGVELVVSDDHAGLVAAIGEVIPEAAWQRCYVHFLRNALDHLPRKHGDDCLQELRWLYDRRDLDEAKADLAAWLGKWSVRYPRLTSWVEETIEQTLTFFRLPRQHHKHLKSTNMLERLNEEIRRRTYVVRIFPNTESCLRLVRALAVETHENWMEANRYINMDDLREHKKLALRQAAEGHHHHHH | soluble |
| MGSDKIHHHHHHMTEQVTRRDVLGTGASVLGSLAIGSTTASGALQTDGTTVTFLHDTHVHGRFANASAGELSVARYFGLMNEITEDADTTLRVGNGDDLASSVLSAVFDGRHVVSTFNAGGLDFDTFGNHDFDMGPEVLRERVSDSLFTWVSANVREDGSVFAAEQGAQQYVLTDVGDVTLGVTGLITPEAPEVTSIGENTDVLAPASALQNVTERMRADGADAVIVLSHLASETARTVAEEVDGVDAIIGDHAASLLEEPEVINDTVLSFVGDEYEYLGELALGIDGSGVTDHEFVLHNVGESSAGTDPFVSLVQDHYETQLERQLDVVIGETTQPLDTRQSVVRARESNMGNFVADTIRTDVEADTALMNGGGIRTDRLYFEDASEDDPVAITRRVVVDILPFPNNVVELEVTGETLLAALENGVSRVEAGAGRFPQVSGITYTYDPTAESGDRIVDATAGGDPIDPDATYTLATNDFVSGGGDGYDMLSDATVLVSSNEGALLSDLIINTIEEQGTISPTTEGRITRQSEES | not soluble |
| MGSDKIHHHHHHMFGLIPKEEKFFAMFKDMAANIVTGGKLLKQMLDSYDDPQASQKKIKDVEHACDAITHDIIQKLNKSFVTPFDREDIYALAAALDDIVDLIDASAQRFIMYNVEKPTPEAKELAFLILQGCLAIEKAVSHLGEKFEHIAEHCVEVNALENEADRVCREAISRLFDEEKDPIQLIKWKEIYETLERATDKCEDAANILESVVVKNA | not soluble |
| MKPRKQDEKILSDQYSYFEPIISDSCDIKFDGDKRRIGSIFISHEEICFIRKEEDYIFKISLSDVVDYNTVVTIWKNQASLTLNDNRKITFYFVTNSPLTGFISILKTYMQLSRNKETIIPDDNLLINDDDEQTKVEIFDVVGLNYEGRRKELKKLIKKMKTNDAFFFLYSDLKGNELKEELLYEDKVYEIPDYEVIPGVFLQKEPDNPYDENAIKVMISNEYSEFHVGYVPREYASRLVNYIEDTVSCNAYINGGKYKTLDYLEEKIVTKESDYGLRIHVEYKVLEHHHHHH | soluble |
| MAHHHHHHMGGYFSKDLEECLRNEKRNLNRSIRELEREIFKLTNEQSKIEKNIKINAKRNGDTSTVRTLARDYISIKKTIAKYNKLKSHLFSMKVKLQSVKSSEQLGRSLTEINRVIKRVNGYIKLTSLNKSINDFHKENNEVSLKEDMLDDLFEAFDYDSQMVAEEEELVTKVLEGMGIQMNAKLEDIPSPGELPKTQVDHLGVSDLEARINNLRLGKS | soluble |
| MGALVIRGIRNFNLENRAEREISKMKPSVAPRHPSTNSLLREQISLYPEVKGEIARKDEKLLSFLKDVYVDSKDPVSSLQVKAAETCQEPKEFRLPKDHHFDMINIKSIPKGKISIVEALTLLNNHKLFPETWTAEKIMQEYQLEQKDVNSLLKYFVTFEVEIFPPEDKKAIRSK | soluble |
| MLTKQPIAKKLNVSADVVWKVVRNIGRLDVWFPIIETCRVEGEGAGALRYMTVAGGGEIRDTIEEIDDVTMRLTYLRPLSPFPVTYYKGTVEVFKSYDGLAIVVWTIDFESEPEDAASVAELVRSAISDGIDGMERDLRGALEHHHHHH | soluble |
| SLGGLKLGDLCRLKGQETNTLQGLGLVVGLQGTGDGDAAPKGRALARMMQLMGGPMAVDAAGRLNIEDVGDAKNVAMVFVSATIPTVGAQQGDVLDVTINAISAKSLDGGYLMLTPMLGPRADNPTVYGMAEGRISVSADSPPTSATIQGGLKMETSVRASYVHDNRITLVIDRDFADFSTAHMIEEEVNSLTSFTIGDRNVSRLASPNHQGTGQDGNIALARAIDQLHVEVVIPPTYRDNPIKFIAFLLDIVIPLSNRGKRVVINEADGVVVIGEDVEIAPVLVTHRNLRIEAGGGGRFVEVGPDGTPAAAKLKSLADALGALDVPTEDLIAIIKTLKAKGDLYGEVIFR | not soluble |
| MENNENHEKLNGVLRKFLGDAFTLDGKEGGLNMEKLREAIKKEKPIMNILLMGATGVGKSSLINALFGKEVAKAGVGKPITQHLEKYVDEEKGLILWDTKGIEDKDYENTLESIKKEMEDSFKTLDEKEAIDVAYLCVKETSGRVQERERESYLEHHHHHH | not soluble |

Source: the DeepSol protein solubility set
